{"source": "the nanobody polyreactivity screen of Harvey et al. (2022)", "data": [{"experiment": "yeast display, Sf9 membrane polyspecificity reagent, FACS + sequencing; frameworks hold sequencing errors", "procedure,_shortened": "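In a synthetic yeast display library (Saccharomyces cerevisiae BJ5465), nanobody expression was induced with galactose for 36–48 hours. FACS gates were set low and high (top ~1%) using anti-HA fluorescence for expression and streptavidin fluorescence for binding of the Sf9 membrane reagent. Each polyreactivity label is drawn from the gate of origin.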", "values": [{"sequence": "QVQLVESGGGLVQAGGILRLSCASSGITFLTYTMGWYRQAPAKERELVAAISRSGGRTYYADSVKGRFTISRDNEKITVYLLMNSLKPEDTAVYYCDAVSATQDFDYWGQGTQETVSS", "polyreactivity (PSR sort gate)": "high polyreactivity"}, {"sequence": "QDDLVESGGGLVQAGGSLRFRGAASGYTFEKYAMGWKRQAPGKERELFASISWSGGRTRYADSVKGRFTISRDNAKNTDSLQMNSLQPEDTAVDYCAARGAYKSGYNRNEYWGQGTQVTVSS", "polyreactivity (PSR sort gate)": "high polyreactivity"}, {"sequence": "QVQLVESGGGLVQAGVSLRLSCAASGFTFWRNAMGWYRQAPGKERELVAAISASGGSTYYADSVKGRFTISRDNAKNTVYLQMNSLKPEDTAVYYCAADTQGFYRYDYWGQGTQVTVSS", "polyreactivity (PSR sort gate)": "low polyreactivity"}, {"sequence": "QVQLVESGGGLVQAGGSLRLSCAASGRIFQRYAMGWYRQAPGKERELVATITRSGGSTYYADSVKGRFTISRDNAKNTVYLQMNSLKPEDTAVFYCSRQWYRYGMGYWGQGTQVSVSS", "polyreactivity (PSR sort gate)": "high polyreactivity"}, {"sequence": "QVQLVESGGGVVQAGGSLGLSCAASGRIFDVNAMGWYRQAPGKERELVAAITYSDGSTYYADSVKGRFTISRDIAKNTVYLQMNSLKPEDTAVYYCAATQEPVTPQPYGYWGQGTQVTVSS", "polyreactivity (PSR sort gate)": "low polyreactivity"}, {"sequence": "QVQLVESGGGLVQAGGSLRLSCAASGSTFRNYAMGWYRQAPGKEREFVAAITWSGGRTYYADSVKGRFTISRDNAKNTVYLQMNSLKPEDTAVYYCAARYRRGYDYWGQGTQVTVSS", "polyreactivity (PSR sort gate)": "high polyreactivity"}, {"sequence": "QVQLVESGGGLVEAGGSLRLSCAASGSTFRRYAMGWYRQAPVKERELVAAISTRGGSTYYADSVKGRFTISRDNAKNTVYLQMNSLKPEDTEVYYCAADPYYTLGYYYWGQGTQVTVSS", "polyreactivity (PSR sort gate)": "high polyreactivity"}, {"sequence": "QVQHVESGGGLVQAGGSLRLSCAASGSIFSAYTMGWYRPAPGKERELVAAISSSGGRTYYADSVKGRFTISRDNAKNTVYLQMNSLKPEDTAVYYCAAGYWWALSSRGYGYWGQGTQVTVSS", "polyreactivity (PSR sort gate)": "high polyreactivity"}, {"sequence": "QVQLVESGGGLVQAGGSLRISCAASGGTFLYYAMGWYRQAPGKERELVAAISRGGSTHYADSVKGRFTISRDNAKNTVYLQMNSLKPEDTAVYYCAVDGGEFSSYGYWGQGTQVTVSS", "polyreactivity (PSR sort gate)": "low polyreactivity"}, {"sequence": "QVQLVESGGGLVQAGGSLRLSCAASGNNFRYNAMVWYRQAPGKERELVAAISSVGTTNYADSVKGRFTISRDNAKNTVYLQMNSLKPEDTAVYYCAAVDYQGGYWYDYWGQGTQVTVSS", "polyreactivity (PSR sort gate)": "low polyreactivity"}, {"sequence": "QVQLVESGGGLVQAGGSLRLSCAASGIIFDYYAMGWYRQAPGKERELVAAITTAGSTYYADSVKGRFTISRDNAKNTVYLQLNSLNPEDTAVYYCDAYLYSVRLGSYGYWGQGTQVTVSS", "polyreactivity (PSR sort gate)": "high polyreactivity"}, {"sequence": "QVQLVESGGGLVQAGGSLRISCAAYGRIFWWYAMGWYRQAPGKERELVASIRYGGGSTYYADSVKGRFTISRDNAKNTVYLQMNSLKPEDTAVYYCAARFKRHGRSDYWGQGTQVTVSS", "polyreactivity (PSR sort gate)": "high polyreactivity"}, {"sequence": "QVQLVESGGGLVQAGGSLRLSCAASGSTFVGYAMGWYRQAPGKERELVAAISWRGTRTYYADSVKGRFTISRDNAKNTVYLQMNSLKPEDTAVYYCAAVARQGKGYDYWGQGTQVTVSS", "polyreactivity (PSR sort gate)": "high polyreactivity"}, {"sequence": "QVQLVESGGGLVQAGGSLRLSCAASGFIFDTYAMGWYRQAHGKERELVAAIRWSGGRTYYGDSVKGRFTISRDNAKNTVYLQMNSMKPEDTAVYYCNVVVRYPYAYDYWGQGTQVTVSS", "polyreactivity (PSR sort gate)": "high polyreactivity"}, {"sequence": "QVQLVESGGGLVQAGGSLRLSCAASAFIYSSYAMGWYRQAPGKEMELVAAISYSGGSTYYADSVKGRFTISRDTAKNTVYLQMNRLKPEDTAVYYCAAELQIKIGFYTGEYEYYYWGQGTQVTVSS", "polyreactivity (PSR sort gate)": "high polyreactivity"}, {"sequence": "QVQLEESGGGLVQAGGSLRLSCAASGSILVRYAMGWYRQAPGKERELVAAITYSVGSTYYADSVKGRFTISRDNAKNTVYLQMNSLKPEDTAVYYCAASGGTEVLLMDYWGQGTQVTVSS", "polyreactivity (PSR sort gate)": "low polyreactivity"}, {"sequence": "QVQLVESGGGLVQAGGSLRLSCAASGRIFPYNAMGWYRQAPGKERELVATNTSGRSTYYADSVKGRFTISRDNAKNTVDVPLNSLKPEDTAVYYCAARYPSIYYYRYDYWGQGTQVTVSS", "polyreactivity (PSR sort gate)": "high polyreactivity"}, {"sequence": "QVQLVESGGGLVQAGGSLRLTCAASGSIFQRNAIGWYRQAPGKERELVAAITASGGRTYYADSVKGRFTISRDNAKNTVYLQMNSLKPEDTAVYYCAARGRTYCGGRTYDYWGHGTQVTVSS", "polyreactivity (PSR sort gate)": "high polyreactivity"}, {"sequence": "QVQLQESGGGLVQAGGSLRLSCAASGNISVTGFMGWYRKAPGKERELVASIGIGGTTYYADSVKGRFSISRDNAKNTVYLQMNSLKPEDTAVYYCAARYLYYAYSYWGQGTQVTVSS", "polyreactivity (PSR sort gate)": "low polyreactivity"}, {"sequence": "QVQLVESGGGLVQAGGSLRLSCAASGSIFKYYAMGWYRQAPGKERQLVAVITSGGSTYYADSVKGRFTISRDNAKNTVYLQMNSLKPEDTAVYYCAAGVRAYNWGEYDYWGLGTQVTVSS", "polyreactivity (PSR sort gate)": "low polyreactivity"}, {"sequence": "QVQLVESGGGLVQAGGSLRLSCAASGSIFRPYAMGWYRQAPGKERELVAGISLRGGSTSYADSVKGRFTISRDNAKNTVYLQMNSLKPEDTAVYYCAASYWWKGDSTYGYWGQGTQVTVSS", "polyreactivity (PSR sort gate)": "high polyreactivity"}]}]}
